The values below come from PMC2573054 (The Journal of Biological Chemistry, 2008).

B1: PLCγ2 spPH (aa 471-913, Δ516-841), wild type (domain or fragment)
chain: GGSGGSKKDEHKQQGELYMWDSIDQKWTRHYCAIADAKLSFSDDIEQTMEEDNPLGSLCRGILDLNTYNVVKAPQGKNQKSFVFILEPKQQGDPPVEFATDRVEELFEWFQSIREITWKIDTK
B2: c-myc epitope-tagged human PLCγ2 (PLCγ2-222, wild type) (enzyme)
chain: MSTTVNVDSLAEYEKSQIKRALELGTVMTVFSFRKSTPERRTVQVIMETRQVAWSKTADKIEGFLDIMEIKEIRPGKNSKDFERAKAVRQKEDCCFTILYGTQFVLSTLSLAADSKEDAVNWLSGLKILHQEAMNASTPTIIESWLRKQIYSVDQTRRNSISLRELKTILPLINFKVSSAKFLKDKFVEIGAHKDELSFEQFHLFYKKLMFEQQKSILDEFKKDSSVFILGNTDRPDASAVYLHDFQRFLIHEQQEHWAQDLNKVRERMTKFIDDTMRETAEPFLFVDEFLTYLFSRENSIWDEKYDAVDMQDMNNPLSHYWISSSHNTYLTGDQLRSESSPEAYIRCLRMGCRCIELDCWDGPDGKPVIYHGWTRTTKIKFDDVVQAIKDHAFVTSSFPVILSIEEHCSVEQQRHMAKAFKEVFGDLLLTKPTEASADQLPSPSQLREKIIIKHKKLGPRGDVDVNMEDKKDEHKQQGELYMWDSIDQKWTRHYCAIADAKLSFSDDIEQTMEEEVPQDIPPTELHFGEKWFHKKVEKRTSAEKLLQEYCMETGGKDGTFLVRESETFPNDYTLSFWRSGRVQHCRIRSTMEGGTLKYYLTDNLTFSSIYALIQHYRETHLRCAEFELRLTDPVPNPNPHESKPWYYDSLSRGEAEDMLMRIPRDGAFLIRKREGSDSYAITFRARGKVKHCRINRDGRHFVLGTSAYFESLVELVSYYEKHSLYRKMRLRYPVTPELLERYNMERDINSLYDVSRMYVDPSEINPSMPQRTVKALYDYKAKRSDELSFCRGALIHNVSKEPGGWWKGDYGTRIQQYFPSNYVEDISTADFEELEKQIIEDNPLGSLCRGILDLNTYNVVKAPQGKNQKSFVFILEPKQQGDPPVEFATDRVEELFEWFQSIREITWKIDTKENNMKYWEKNQSIAIELSDLVVYCKPTSKTKDNLENPDFREIRSFVETKADSIIRQKPVDLLKYNQKGLTRVYPKGQRVDSSNYDPFRLWLCGSQMVALNFQTADKYMQMNHALFSLNGRTGYVLQPESMRTEKYDPMPPESQRKILMTLTVKVLGARHLPKLGRSIACPFVEVEICGAEYDNNKFKTTVVNDNGLSPIWAPTQEKVTFEIYDPNLAFLRFVVYEEDMFSDPNFLAHATYPIKAVKSGFRSVPLKNGYSEDIELASLLVFCEMRPVLESEEELYSSCRQLRRRQEELNNQLFLYDTHQNLRNANRDALVKEFSVNENQLQLYQEKCNKRLREKRVSNSKFYS
B3: PLCγ1-122 (PLCγ1 with both portions of the split PH domain of PLCγ2), c-myc epitope-tagged (enzyme)
chain: MAGAASPCANGCGPGAPSDAEVLHLCRSLEVGTVMTLFYSKKSQRPERKTFQVKLETRQITWSRGADKIEGAIDIREIKEIRPGKTSRDFDRYQEDPAFRPDQSHCFVILYGMEFRLKTLSLQATSEDEVNMWIKGLTWLMEDTLQAPTPLQIERWLRKQFYSVDRNREDRISAKDLKNMLSQVNYRVPNMRFLRERLTDLEQRSGDITYGQFAQLYRSLMYSAQKTMDLPFLEASTLRAGERPELCRVSLPEFQQFLLDYQGELWAVDRLQVQEFMLSFLRDPLREIEEPYFFLDEFVTFLFSKENSVWNSQLDAVCPDTMNNPLSHYWISSSHNTYLTGDQFSSESSLEAYARCLRMGCRCIELDCWDGPDGMPVIYHGHTLTTKIKFSDVLHTIKEHAFVASEYPVILSIEDHCSIAQQRNMAQYFKKVLGDTLLTKPVEISADGLPSPNQLKRKILIKHKKLAEGSAYEEVPTSMMYMEDKKDEHKQQGELYMWDSIDQKWTRHYCAIADAKLSFSDDIEQTMGNEDEEEPKEVSSSTELHSNEKWFHGKLGAGRDGRHIAERLLTEYCIETGAPDGSFLVRESETFVGDYTLSFWRNGKVQHCRIHSRQDAGTPKFFLTDNLVFDSLYDLITHYQQVPLRCNEFEMRLSEPVPQTNAHESKEWYHASLTRAQAEHMLMRVPRDGAFLVRKRNEPNSYAISFRAEGKIKHCRVQQEGQTVMLGNSEFDSLVDLISYYEKHPLYRKMKLRYPINEEALEKIGTAEPDYGALYEGRNPGFYVEANPMPTFKCAVKALFDYKAQREDELTFIKSAIIQNVEKQEGGWWRGDYGGKKQLWFPSNYVEEMVNPVALEPEREHLDENSPLGDLCRGILDLNTYNVVKAPQGKNQKSFVFILEPKQQGDPPVEFATDRVEELFEWFQSIREITWKIDTKETEGKIMERRKKIALELSELVVYCRPVPFDEEKIGTERACYRDMSSFPETKAEKYVNKAKGKKFLQYNRLQLSRIYPKGQRLDSSNYDPLPMWICGSQLVALNFQTPDKPMQMNQALFMTGRHCGYVLQPSTMRDEAFDPFDKSSLRGLEPCAISIEVLGARHLPKNGRGIVCPFVEIEVAGAEYDSTKQKTEFVVDNGLNPVWPAKPFHFQISNPEFAFLRFVVYEEDMFSDQNFLAQATFPVKGLKTGYRAVPLKNNYSEDLELASLLIKIDIFPAKQENGDLSPFSGTSLRERGSDASGQLFHGRAREGSFESRYQQPFEDFRISQEHLADHFDSRERRAPRRTRVNGDNRL

In this experiment the target is His-Rac2 (hexahistidine-tagged Rac2^G12V, aa 2-177) (human, UniProt P15153 2-177, G12V). Description: SPR.
By Kd is commonly meant the constant that tells how readily two partners part at equilibrium. Higher therefore signals lower affinity. The term koff denotes a measure of how fast the partners let go of each other. A higher koff goes with fast dissociation. Usually kon stands for a measure of how fast the partners come together. Higher therefore signals faster complex formation. B1 yielded a Kd of 17 µM, a koff of 0.0016 s⁻¹ and a kon of 93.8 M⁻¹ s⁻¹.

On to B2, for which binding was characterised by a dissociation constant (Kd) of 3.9 µM, the dissociation rate constant (koff) is 0.0031 s⁻¹ and the kon stood at 806 M⁻¹ s⁻¹.

Consider B3, for which the Kd is 5.8 µM, the koff is 0.0025 s⁻¹ and the association rate constant (kon) was found to be 434 M⁻¹ s⁻¹.
